Experimental findings from US20140120095A1 (Boehringer Ingelheim, published 2014) are described below.

Broadly, the IC50 is the point on the concentration scale where inhibition reaches its midpoint. Low readings indicate greater potency in that assay, high ones weaker potency in that assay. For orientation: koff means the first-order rate constant of dissociation.

For experiment [1], the target named is T1, PIGF (UniProt P49763-2 21-149, limits assumed).
T1 construct: also called placenta growth factor
T1 sequence (looked up): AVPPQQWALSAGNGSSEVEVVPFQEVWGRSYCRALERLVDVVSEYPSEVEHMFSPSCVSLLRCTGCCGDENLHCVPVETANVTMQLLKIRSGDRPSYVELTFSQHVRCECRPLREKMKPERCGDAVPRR
The experiment in a line: solid phase binding ELISA on coated PIGF (Example 12.8). Here is the method: (§1) Binding to VEGFB, VEGFC, VEGFD and PIGF is assessed via a solid phase binding ELISA. […] Wells are blocked with a casein solution (1% in PBS). […] As positive controls serial dilutions of the appropriate receptors are taken along and detected with horseradish peroxidase (HRP)-conjugated goat anti-human IgG, Fc specific antibody (Jackson Immuno Research Laboratories Inc., West Grove, Pa., USA) and a subsequent enzymatic reaction in the presence of the substrate TMB (3,3′,5,5′-tetramentylbenzidine) (Pierce, Rockford, Ill., USA).
(In general: ELISA stands for enzyme-linked immunosorbent assay.)

Experiment [2] concerns the target T2, VEGFB (UniProt P49765-2 22-188, limits assumed).
T2 sequence (looked up): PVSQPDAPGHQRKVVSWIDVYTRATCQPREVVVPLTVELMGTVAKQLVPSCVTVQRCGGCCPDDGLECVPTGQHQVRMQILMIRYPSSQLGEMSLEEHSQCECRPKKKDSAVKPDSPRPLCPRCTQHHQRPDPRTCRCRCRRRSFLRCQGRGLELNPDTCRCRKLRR
The experiment in a line: binding ELISA on coated VEGFB (Example 12.8), OD 450 nm. How it is done: as §1

Experiment [3] concerns the target T3, VEGFC (UniProt P49767 103-227, limits assumed).
T3 sequence (looked up): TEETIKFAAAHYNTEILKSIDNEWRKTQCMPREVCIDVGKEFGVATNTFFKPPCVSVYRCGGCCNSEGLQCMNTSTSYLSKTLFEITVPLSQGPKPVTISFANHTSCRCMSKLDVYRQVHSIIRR
Kind of experiment: binding ELISA on coated VEGFC (Example 12.8), OD 450 nm. How it is done: as §1

Experiment [4] addresses T4, VEGFD (UniProt O43915 93-201, limits assumed).
T4 sequence (looked up): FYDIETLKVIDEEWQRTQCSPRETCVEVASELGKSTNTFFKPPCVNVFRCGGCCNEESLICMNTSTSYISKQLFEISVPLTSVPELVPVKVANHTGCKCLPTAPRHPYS
The experiment in a line: binding ELISA on coated VEGFD (Example 12.8), OD 450 nm. How it is done:
as §1

For experiment [5], the target named is T5, human VEGFR2-Fc chimera (human, UniProt P35968 20-764).
T5 construct: also called hVEGFR2-Fc; VEGFR2-huFc; not shown: human Fc part of the bought chimera; not described
Kind of experiment: ELISA, coated VEGF109. Here is the method:
Cells are harvested by centrifugation and lysed by sonication of the cell pellet. Inclusion bodies are isolated by centrifugation. […] The refolded protein is purified by ion exchange chromatography using a MonoQ5/50GL (Amersham BioSciences) column followed by gel filtration with a Superdex75 10/300 GL column (Amersheim BioSciences). […] To this end, 1 μg/mL of recombinant human VEGF109 is immobilized overnight at 4° C. in a 96-well MaxiSorp plate (Nunc, Wiesbaden, Germany). Wells are blocked with a casein solution (1%).

Experiment [6] has as its target T6, human DLL4, full length, overexpressed on cells (human, UniProt Q9NR61 27-685).
T6 construct: CHO cells in FMAT, HEK293 cells in the reporter assay; also called hDLL4; CHO-hDLL4
The experiment in a line: FMAT, hNotch1-Fc on CHO-hDLL4, -HSA.

Experiment [7] has as its target T7, mouse DLL4, full length, overexpressed on CHO cells (mouse, UniProt Q9JI71 27-686).
T7 construct: whole, on cells; also called mDLL4; CHO-mDLL4
The experiment in a line: FMAT, hNotch1-Fc on CHO-mDLL4, -HSA.

In experiment [8] the target is T6, human DLL4, full length, overexpressed …. Kind of experiment: FMAT, hNotch1-Fc on CHO-hDLL4, +25 uM HSA.
The target in experiment [9] is T7, mouse DLL4, full length, overexpressed …. Kind of experiment: FMAT, hNotch1-Fc on CHO-mDLL4, +25 uM HSA.
Experiment [10] deals with T8, human DLL4 overexpressed on cells (human, UniProt Q9NR61 27-685).
T8 construct: full length human DLL4 on CHO or HEK293 cells; also called CHO-hDLL4; CHO-hDII4
The experiment in a line: FMAT, labelled hNotch1-Fc on CHO-hDLL4, periplasmic extract. From the text:
(§2) All calculations are based on the FL1_total signal which comprises the average of the fluorescence per well times the number of counts per well.

Experiment [11] concerns the target T9, mouse DLL4 overexpressed on cells (mouse, UniProt Q9JI71 27-686).
T9 construct: whole, on cells; also called CHO-mDLL4; CHO-mDII4
The experiment in a line: FMAT, labelled hNotch1-Fc on CHO-mDLL4, periplasmic extract.
Excerpt: as §2

Experiment [12] concerns the target T10, recombinant human DLL4 (human, UniProt Q9NR61 25-522).
T10 construct: also called rhDLL4; hDLL4
Kind of experiment: Biacore off-rate, periplasmic extract; single VHH, not bracketed. In general terms: SPR reads the build-up and loss of mass on a sensor chip optically.

T7 sequence (Q9JI71 27-686): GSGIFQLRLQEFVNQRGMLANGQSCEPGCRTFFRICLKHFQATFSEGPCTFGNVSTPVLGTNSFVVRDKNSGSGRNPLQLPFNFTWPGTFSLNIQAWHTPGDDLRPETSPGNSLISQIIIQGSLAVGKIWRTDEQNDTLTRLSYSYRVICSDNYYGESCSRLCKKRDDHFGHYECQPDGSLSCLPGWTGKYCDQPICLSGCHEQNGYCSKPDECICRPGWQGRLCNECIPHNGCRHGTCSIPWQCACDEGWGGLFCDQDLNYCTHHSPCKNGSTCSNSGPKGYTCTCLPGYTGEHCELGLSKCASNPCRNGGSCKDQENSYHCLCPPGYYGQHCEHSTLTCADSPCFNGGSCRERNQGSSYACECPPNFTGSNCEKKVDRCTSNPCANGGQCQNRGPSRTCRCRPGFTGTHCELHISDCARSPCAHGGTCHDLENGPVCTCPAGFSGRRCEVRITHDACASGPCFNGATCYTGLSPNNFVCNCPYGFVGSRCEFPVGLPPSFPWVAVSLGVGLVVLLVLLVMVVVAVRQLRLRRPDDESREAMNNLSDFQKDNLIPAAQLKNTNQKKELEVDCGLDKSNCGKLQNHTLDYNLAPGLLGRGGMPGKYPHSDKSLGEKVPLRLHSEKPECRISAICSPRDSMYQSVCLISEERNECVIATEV
T9 sequence (Q9JI71 27-686): as above
T5 sequence (P35968 20-764, change not shown): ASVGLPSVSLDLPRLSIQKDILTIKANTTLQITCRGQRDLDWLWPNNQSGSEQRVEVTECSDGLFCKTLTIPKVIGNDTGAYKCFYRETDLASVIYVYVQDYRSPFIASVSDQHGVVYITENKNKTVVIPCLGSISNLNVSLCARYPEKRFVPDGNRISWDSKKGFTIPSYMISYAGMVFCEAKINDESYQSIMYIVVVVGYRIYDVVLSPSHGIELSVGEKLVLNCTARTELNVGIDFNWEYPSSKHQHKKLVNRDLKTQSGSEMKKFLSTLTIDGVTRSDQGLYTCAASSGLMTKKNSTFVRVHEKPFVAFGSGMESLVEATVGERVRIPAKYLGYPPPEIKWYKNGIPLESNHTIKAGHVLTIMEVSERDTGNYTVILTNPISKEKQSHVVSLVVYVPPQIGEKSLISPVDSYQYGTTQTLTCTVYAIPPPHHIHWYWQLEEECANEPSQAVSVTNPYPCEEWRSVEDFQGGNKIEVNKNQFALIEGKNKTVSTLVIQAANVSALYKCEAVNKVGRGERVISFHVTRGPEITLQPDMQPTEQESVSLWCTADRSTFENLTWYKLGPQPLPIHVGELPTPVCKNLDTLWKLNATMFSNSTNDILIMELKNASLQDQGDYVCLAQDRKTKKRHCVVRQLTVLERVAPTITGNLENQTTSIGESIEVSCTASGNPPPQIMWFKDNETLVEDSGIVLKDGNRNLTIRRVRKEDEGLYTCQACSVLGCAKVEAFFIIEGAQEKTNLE

B1: VEGFBII010 (VHH)
chain: EVQLVESGGGLVQTGDSLRLSCEVSGRTFSSYSMGWFRQAQGKEREFVVAISKGGYKYDSVSLEGRFTISKDNAKNTVYLQINSLKPEDTAVYYCASSRAYGSSRLRLADTYEYWGQGTQVTVSSGGGGSGGGGSGGGGSGGGGSGGGGSGGGGSGGGGSEVQLVESGGGLVQTGDSLRLSCEVSGRTFSSYSMGWFRQAQGKEREFVVAISKGGYKYDSVSLEGRFTISKDNAKNTVYLQINSLKPEDTAVYYCASSRAYGSSRLRLADTYEYWGQGTQVTVSS
notes: homodimeric bivalent VHH; also called VEGFBII23B04-35GS-23B04
Turning to B1, the binding result is “no binding (tested: about 5e-7 M)” in experiment [1], “no binding (tested: 5e-7 M)” in experiment [2], “no binding (tested: 5e-7 M)” in experiment [3] and “no binding (tested: 5e-7 M)” in [4].

B2: recombinant human VEGF109 (ligand, UniProt P15692 207-315, looked up)
chain: APMAEGGGQNHHEVVKFMDVYQRSYCHPIETLVDIFQEYPDEIEYIFKPSCVPLMRCGGCCNDEGLECVPTEESNITMQIMRIKPHQGQHIGEMSFLQHNKCECRPKKD
notes: residue numbers count on GenBank AAM03108.1; also called rhVEGF109
Consider B2, for which, in experiment [5], the binding result is given as “binds”.

B3: DLLBII018 (VHH)
VHH: EVQLVESGGGLVQPGGSLRLSCAASGRTFSSYAMAWYRQAPGKEREYVAAIRWSGGTAYYADSVKGRFTISRDNAKNTVYLQMNSLRPEDTAVYYCANRAPDTRLAPYEYDHWGQGTLVTVSS
B3: the “% inh” value in experiment [6] is 87%; in experiment [7], 99%. Moreover, the IC50 amounted to 5.5 nM in [6], 2.4 nM in experiment [7], 7.1 nM in experiment [8] and 2.8 nM in experiment [9].

B4: DLLBII101F01 (VHH)
VHH: EVQLVESGGGLVQAGGSLRLSCAASGRTFSNYAMGWFRQAPGKEREFVAAISWSGGDTYYADSVKGRFTISRDNAKNTVCLQMNSLKPEDTAVYYCAASFQSGAAPGANFYDYWGQGTQVTVSS
For B4, the “% inh” value is 85% in experiment [10] and 78% in experiment [11]. Further, the koff in experiment [12] came to 0.02 s⁻¹.
